Experimental findings from patent publication US20240067683A1, “USE OF MCM8-CGAS-STING-IFN-I SIGNAL PATHWAY AS DISEASE TARGET” (Guangzhou Women and Children's Medical Center, priority 2020, published 2024) are described below.

The test system of assay [1] is MCM8. The assay is described as follows: Nuclear export of MCM8 detected by nuclear-cytoplasmic separation. In kind it is cell-based. The procedure:
The cells were treated with leptomycin B, a nuclear export inhibitor, to inhibit the protein shuttle out of the nucleus, and the expressions of MCM8 in the cytoplasm (cyto) and the nucleus (nuc) were respectively detected by nuclear-cytoplasmic separation. […] It could be seen that ubiquitination was essential for the nuclear export of MCM8. […] (see Panel f, FIG. 12).

The subject of assay [2] is MCM8. Kind of assay: TRIM21-mediated ubiquitination of MCM8. In kind it is cell-based.
The test system of assay [3] is pIRF3. Kind of assay: pIRF3 level by western blot in normal or p0 THP-1 cells, MCM8 knockdown, SeV stimulation. The following applies: mitochondrion-free p0 THP-1 cells from EtBr treatment. The class given is cell-based, human. Here is the method:
(§1) To further verify the mechanism of MCM8-cGAS-STING pathway, the inventors knocked down MCM8 in THP-1 cells, stimulated the cells with SeV, and then treated the cells with MTP complex pore inhibitor cyclosporine A (CsA) ([…]) to inhibit the release of mitochondrial DNA. […] The results were similar when the mitochondria in the cells were removed by EtBr treatment. The process was as follows: THP-1 cells were treated with EtBr to completely remove the mitochondrial DNAs in the cells to construct mitochondrion-free p0 cells, MCM8 was knocked down in normal THP-1 or p0 THP-1, the cells were then stimulated with SeV, the expressions of IFN-α and IFN-β were detected by Q-PCR, and the level of pIRF3 (IRF3 protein activated by phosphorylation) was detected by western blot. […] In Panel D, four columns are taken as a group and represent, from left to right, ctrl siRNA blank control group, MCM8 siRNA control group, ctrl siRNA group of mitochondrion-free cells, and MCM8 siRNA group of mitochondrion-free cells. […] On the contrary, drugs that inhibits or eliminats mtDNA can block the function of MCM8 in regulating IFN-I, and MCM8-knockdown activates cGAS-STING-IFN-I signaling pathway by increasing the amount of cytoplasmic mtDNA.

The test system of assay [4] is IFN-I. The assay is described as follows: IFN-I in MCM8-knockdown THP-1 cells stimulated with SeV, with CsA or EtBr (mitochondrion-free p0 cells) treatment. The following applies: mitochondrion-free p0 THP-1 cells from EtBr treatment. The class given is cell-based, human. The procedure: as §1
Assay [5] concerns mitochondrial LC3. Kind of assay: Western blot of mitochondrial LC3 and mitochondrial proteins in Hela cells overexpressing MCM8. The following applies: with or without LPS or SeV, vs EV control. In kind it is cell-based. From the text:
Based on the findings in Embodiment 6, MCM8 is related to the amount of cytoplasmic mtDNA and cGAS-STING-IFN-I signaling pathway, while the amount of mtDNA is related to mitophagy, and therefore, the experiment was further carried out as follows. Experiment of MCM8-knockdown inhibiting mitophagy-related proteins: in MCM8-knockdown THP-1 cells, detection indicators related to mitophagy were studied. The cells were stimulated or not stimulated with LPS and SeV, respectively, and the expressions of mitochondrial LC3 and other mitochondrial proteins TOM20, MFN2, PINK1 and COXIV were detected by western blot. It was found from the results that, compared with the control group (Ctrl siRNA), MCM8-knockdown could inhibit the activation of mitochondrial LC3 and increase the amounts of mitochondrial proteins (TOM20, MFN2, PINK1, and COXIV) (see Panel A, FIG. 4). Correspondingly, MCM8 (Flag-MCM8) was overexpressed in Hela cells, the cells were stimulated or not stimulated with LPS and SeV, respectively, and the expressions of mitochondrial LC3 and other mitochondrial proteins (TOM20, MFN2, PINK1, and COXIV) were detected by western blot.

For assay [6], the system named is IFN-β. Kind of assay: IFN-β mRNA level by Q-PCR in 293T cells overexpressing MCM8 or its mutants, stimulated with poly(dA:dT). The class given is cell-based. The conditions noted are these: 200 ng overexpressed. Here is the method: Besides the previously found A276P and S365N mutations, the inventors found other point mutations related to Kawasaki disease, namely, S280C mutation and S764A mutation, and further conducted cloning and cell experiments, comprising the steps of using 293T cells to separately overexpress 200 ng MCM8, and each of mutants, namely, MCM8 (A276P), MCM8 (S280C), MCM8 (S365N) and MCM8 (S764A); and 24 hours after transfection, stimulating the cells with poly(dA:dT) for 0, 12 and 24 h, collecting RNA, and detecting the mRNA level of IFN-β by Q-PCR. […] Therefore, it can be further considered that the previously found mutations A276P and S365N in MCM8 are both mutation factors that affect the function of MCM8 in regulating IFN-I and lead to Kawasaki disease, while the mutations S280C and S764A are also newly discovered mutations in systemic vasculitis such as Kawasaki disease. These two mutations may be used to diagnose or assist in the diagnosis of Kawasaki disease and systemic vasculitis diseases similar to Kawasaki disease (e.g., systemic lupus erythematosus).

Assay [7] deals with LC3. Kind of assay: Binding of full-length, truncated and point-mutated MCM8 to LC3. The text has this:
Proteins that directly bind to LC3 generally have a LIR motif, the inventors, when predicting with website whether MCM8 has a LIR motif, find that the sequence between the sites MCM8 272-277 is LIR motif. According to the functional domain of MCM8, the inventors constructed truncated mutants in various truncated forms of MCM8 and detected the results of the binding thereof to LC3.
By means of 3D structure prediction, the binding of MCM8 LIR motif to LC3 was simulated (see Panels C and D, FIG. 5).

Assay [8] has as its target T1, TRIM21 (Homo sapiens, UniProt P19474).
T1 construct: Flag; expressed in transfected cells; host or cells: HeLa
Kind of assay: Co-immunoprecipitation of Flag-TRIM21 and HA-MCM8 in HeLa cells. In kind it is binding. From the text:
Further, HeLa cells were transfected with Flag-TRIM21 and HA-MCM8 and subjected to co-immunoprecipitation analysis.

Setting [9] is: stimulation with LPS and poly(dA:dT).

T1 sequence (P19474 whole entry): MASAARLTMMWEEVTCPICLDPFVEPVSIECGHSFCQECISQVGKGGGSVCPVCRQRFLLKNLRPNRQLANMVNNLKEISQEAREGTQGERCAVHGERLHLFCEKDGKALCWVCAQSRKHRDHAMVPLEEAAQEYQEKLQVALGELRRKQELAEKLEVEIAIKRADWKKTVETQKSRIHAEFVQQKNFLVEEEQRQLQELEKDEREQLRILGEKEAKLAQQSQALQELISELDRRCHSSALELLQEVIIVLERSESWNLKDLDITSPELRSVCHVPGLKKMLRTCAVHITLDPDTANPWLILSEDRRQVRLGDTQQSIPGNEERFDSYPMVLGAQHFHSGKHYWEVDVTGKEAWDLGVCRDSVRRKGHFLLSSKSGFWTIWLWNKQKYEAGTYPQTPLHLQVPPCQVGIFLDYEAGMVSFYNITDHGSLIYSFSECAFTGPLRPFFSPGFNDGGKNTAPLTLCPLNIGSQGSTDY

Turning to `CC(=N)NCc1cccc(CN)c1` [1400W], in assay [1] (setting [9]), the “nuclear export of MCM8” value is listed as “inhibited”. Besides, in assay [2], the “ubiquitination of MCM8 mediated by TRIM21” value is “significantly inhibited”.
Turning to `CC[n+]1c(-c2ccccc2)c2cc(N)ccc2c2ccc(N)cc21.[Br-]` [EtBr], in assay [3], the “expression of pIRF3 protein” value is recorded as “significantly inhibited”. For the same molecule, the “function of MCM8 in regulating IFN-I (IFN-α and IFN-β expression, Q-PCR)” value in assay [4] was “blocked”.
With `NS(=O)(=O)OC[C@H]1C[C@@H](Nc2ccnc3cc(-c4cccc(SC(F)(F)F)c4)nn23)[C@H](O)[C@@H]1O` [TAK-243], in assay [1] (setting [9]), the “nuclear export of MCM8” value is “obviously inhibited”.
On to `CCC(=C/[C@H](C)C/C=C/C(C)=C/[C@@H](C)C(=O)[C@@H](C)[C@H](O)[C@@H](C)C/C(C)=C/C(=O)O)/C=C/[C@@H]1OC(=O)C=C[C@@H]1C` [leptomycin B], for which the “nuclear export of MCM8” value in assay [1] (stimulation with SeV and LPS) is “significantly inhibited”.

B1: MCM8: Full-length MCM8 protein (SEQ ID NO: 2), overexpressed in cells (protein, listed as Homo sapiens)
chain: MNGEYRGRGFGRGRFQSWKRGRGGGNFSGKWREREHRPDLSKTTGKRTSEQTPQFLLSTKTPQSMQSTLDRFIPYKGWKLYFSEVYSDSSPLIEKIQAFEKFFTRHIDLYDKDEIERKGSILVDFKELTEGGEVTNLIPDIATELRDAPEKTLACMGLAIHQVLTKDLERHAAELQAQEGLSNDGETMVNVPHIHARVYNYEPLTQLKNVRANYYGKYIALRGTVVRVSNIKPLCTKMAFLCAACGEIQSFPLPDGKYSLPTKCPVPVCRGRSFTALRSSPLTVTMDWQSIKIQELMSDDQREAGRIPRTIECELVHDLVDSCVPGDTVTITGIVKVSNAEEGSRNKNDKCMFLLYIEANSISNSKGQKTKSSEDGCKHGMLMEFSLKDLYAIQEIQAEENLFKLIVNSLCPVIFGHELVKAGLALALFGGSQKYADDKNRIPIRGDPHILVVGDPGLGKSQMLQAACNVAPRGVYVCGNTTTTSGLTVTLSKDSSSGDFALEAGALVLGDQGICGIDEFDKMGNQHQALLEAMEQQSISLAKAGVVCSLPARTSIIAAANPVGGHYNKAKTVSENLKMGSALLSRFDLVFILLDTPNEHHDHLLSEHVIAIRAGKQRTISSATVARMNSQDSNTSVLEVVSEKPLSERLKVVPGETIDPIPHQLLRKYIGYARQYVYPRLSTEAARVLQDFYLELRKQSQRLNSSPITTRQLESLIRLTEARARLELREEATKEDAEDIVEIMKYSMLGTYSDEFGNLDFERSQHGSGMSNRSTAKRFISALNNVAERTYNNIFQFHQLRQIAKELNIQVADFENFIGSLNDQGYLLKKGPKVYQLQTM
modifications: Flag or HA tag
For the molecule B1, the “activation of LC3” value in assay [5] is on record as “promoted the activation of LC3 more obviously”. For the same molecule, in assay [5], the “mitochondrial proteins (TOM20, MFN2, PINK1, COXIV)” value is “inhibited the increase of mitochondrial proteins”. Moreover, the “IFN-β level (mRNA, Q-PCR)” value stood at 0 in assay [6] (poly(dA:dT) 0 h), 100 in assay [6] (poly(dA:dT) 12 h) and 250 in assay [6] (poly(dA:dT) 24 h). Moreover, the “direct binding to LC3” value in assay [7] (mass spectrometry experiments) is given as “could directly bind to LC3”. In addition, the “binding to TRIM21 upon stimulation” value in assay [8] (LPS or poly(dA:dT)) was “the binding increased”. The “binding to E3 ubiquitin ligase TRIM21” value in assay [8] (co-immunoprecipitation) is “could bind”.

B2: MCM8 (A276P): MCM8 with point mutation A276P in the LIR motif, found in Kawasaki disease patients (protein)
chain: MNGEYRGRGFGRGRFQSWKRGRGGGNFSGKWREREHRPDLSKTTGKRTSEQTPQFLLSTKTPQSMQSTLDRFIPYKGWKLYFSEVYSDSSPLIEKIQAFEKFFTRHIDLYDKDEIERKGSILVDFKELTEGGEVTNLIPDIATELRDAPEKTLACMGLAIHQVLTKDLERHAAELQAQEGLSNDGETMVNVPHIHARVYNYEPLTQLKNVRANYYGKYIALRGTVVRVSNIKPLCTKMAFLCAACGEIQSFPLPDGKYSLPTKCPVPVCRGRSFTPLRSSPLTVTMDWQSIKIQELMSDDQREAGRIPRTIECELVHDLVDSCVPGDTVTITGIVKVSNAEEGSRNKNDKCMFLLYIEANSISNSKGQKTKSSEDGCKHGMLMEFSLKDLYAIQEIQAEENLFKLIVNSLCPVIFGHELVKAGLALALFGGSQKYADDKNRIPIRGDPHILVVGDPGLGKSQMLQAACNVAPRGVYVCGNTTTTSGLTVTLSKDSSSGDFALEAGALVLGDQGICGIDEFDKMGNQHQALLEAMEQQSISLAKAGVVCSLPARTSIIAAANPVGGHYNKAKTVSENLKMGSALLSRFDLVFILLDTPNEHHDHLLSEHVIAIRAGKQRTISSATVARMNSQDSNTSVLEVVSEKPLSERLKVVPGETIDPIPHQLLRKYIGYARQYVYPRLSTEAARVLQDFYLELRKQSQRLNSSPITTRQLESLIRLTEARARLELREEATKEDAEDIVEIMKYSMLGTYSDEFGNLDFERSQHGSGMSNRSTAKRFISALNNVAERTYNNIFQFHQLRQIAKELNIQVADFENFIGSLNDQGYLLKKGPKVYQLQTM
Turning to B2, the “binding to LC3” value in assay [7] (MCM8 constructs with or without LIR motif) is recorded as “greatly reduced”.

B3: MCM8 (S280C): MCM8 with point mutation S280C (protein, listed as Homo sapiens)
chain: MNGEYRGRGFGRGRFQSWKRGRGGGNFSGKWREREHRPDLSKTTGKRTSEQTPQFLLSTKTPQSMQSTLDRFIPYKGWKLYFSEVYSDSSPLIEKIQAFEKFFTRHIDLYDKDEIERKGSILVDFKELTEGGEVTNLIPDIATELRDAPEKTLACMGLAIHQVLTKDLERHAAELQAQEGLSNDGETMVNVPHIHARVYNYEPLTQLKNVRANYYGKYIALRGTVVRVSNIKPLCTKMAFLCAACGEIQSFPLPDGKYSLPTKCPVPVCRGRSFTALRSCPLTVTMDWQSIKIQELMSDDQREAGRIPRTIECELVHDLVDSCVPGDTVTITGIVKVSNAEEGSRNKNDKCMFLLYIEANSISNSKGQKTKSSEDGCKHGMLMEFSLKDLYAIQEIQAEENLFKLIVNSLCPVIFGHELVKAGLALALFGGSQKYADDKNRIPIRGDPHILVVGDPGLGKSQMLQAACNVAPRGVYVCGNTTTTSGLTVTLSKDSSSGDFALEAGALVLGDQGICGIDEFDKMGNQHQALLEAMEQQSISLAKAGVVCSLPARTSIIAAANPVGGHYNKAKTVSENLKMGSALLSRFDLVFILLDTPNEHHDHLLSEHVIAIRAGKQRTISSATVARMNSQDSNTSVLEVVSEKPLSERLKVVPGETIDPIPHQLLRKYIGYARQYVYPRLSTEAARVLQDFYLELRKQSQRLNSSPITTRQLESLIRLTEARARLELREEATKEDAEDIVEIMKYSMLGTYSDEFGNLDFERSQHGSGMSNRSTAKRFISALNNVAERTYNNIFQFHQLRQIAKELNIQVADFENFIGSLNDQGYLLKKGPKVYQLQTM
In the case of B3, the “IFN-β level (mRNA, Q-PCR)” value in assay [6] (poly(dA:dT) 24 h) is reported as “below 250”.
